Data taken from patent US7794927B2, “Method for identifying agonists or antagonists of the G-protein coupled receptor mas-like 1” (priority 2002, dated 2010).
Ends that are not written are not given here.

Columns and labels:
[1] = biological target: T1, G protein-coupled receptor mas-like 1 (Homo sapiens, UniProt Q96LB1); test: FLIPR assay of stimulation of mas-like 1 transiently expressed in CHO-K1 cells (Fluo4 Ca2+ fluorescence); assay type: cell-based; conditions: for formation of fluorescence in the cells: CHO-K1 cells transiently expressing mas-like 1, zero value about 20 fluorescence intensity units; for agonistic effects on mas-like 1: test system designed in accordance with the detection method
T1 construct: The receptor has therefore been amplified starting from genomic DNA using a polymerase chain reaction (PCR); expressed in transfected cells; host or cells: CHO-K1 (transient, pcDNA3.1)
T1 sequence (Q96LB1 1-330): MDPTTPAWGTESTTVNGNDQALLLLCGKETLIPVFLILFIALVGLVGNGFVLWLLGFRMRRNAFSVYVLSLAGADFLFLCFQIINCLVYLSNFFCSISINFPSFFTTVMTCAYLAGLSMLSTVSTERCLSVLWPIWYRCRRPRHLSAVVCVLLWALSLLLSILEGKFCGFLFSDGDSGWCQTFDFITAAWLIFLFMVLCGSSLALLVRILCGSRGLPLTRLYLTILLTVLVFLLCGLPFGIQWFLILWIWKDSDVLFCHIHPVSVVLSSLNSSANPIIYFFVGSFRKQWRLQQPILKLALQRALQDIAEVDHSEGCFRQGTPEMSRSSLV
Protocol: CHO-K1 cells were cultivated in basal Iscove's medium supplemented with 10% fetal bovine serum, 10 000 U/ml-10 000 μg/ml penicillin-streptomycin, gentamycin and 2 mM glutamine.
Iscove's medium is commercially available inter alia from Biochrom, Berlin. The composition of Iscove's medium is described in “Iscove, N. N., Melchers, F., Journal of Experimental Medicine 147, 923-933 (1978)”. The CHO-K1 cells were applied in an amount of 2×10^5 cells to a 35 mm culture dish for the transient transfection. The cells were transfected after incubation for about 24 hours or at a confluence of 50-80% with 2 μg of DNA using Lipofectamine reagent which is commercially available inter alia from Invitrogen Life Technologies, Karlsruhe.
About 16 to 18 hours after the transfection, the cells were transferred into 96-well microtiter plates with a density of about 80 000 cells per well. Incubation was then continued for 18 to 24 hours. After this, 95 μl of HBSS (Hank's buffered saline solution) which contained 20 mM HEPES, 2.5 mM probenecid, 4 μM Fluo4 and 1% fetal bovine serum were added, and incubation was carried out in the presence of 5% CO2 at 37° C. for 1 hour. Fluo4 is a dye which fluoresces in the presence of Ca^2+. Fluo4 is sold commercially inter alia by Molecular Probes Europe BV, Leiden. After the incubation, the cells were washed three times with PBS (phosphate buffered saline) which contained 1 mM MgCl2, 1 mM EDTA and 2.5 mM probenecid.
After the last washing step, about 100 μl of the solution were left on the cells in each well. The peptides to be tested were dissolved in water or DMSO (dimethyl sulfoxide) in a concentration of 2 mM. The appropriate dilutions of the final concentration ([…]) were prepared starting from such a stock solution. The fluorescence was measured using a FLIPR (Fluorometric Imaging Plate Reader; Molecular Devices GmbH, Ismaning) for a total of 3 minutes at 1-second intervals for the first minute and at 3-second intervals during the second and third minute. The measurements between 18 seconds and 37 seconds were used to determine the agonistic effect.
Various peptides were tested for their property of stimulating the G protein-coupled receptor mas-like 1. The test was carried out using FLIPR technology. The receptor was for this purpose transiently expressed in CHO-K1 cells.

[2] = biological target: T1, G protein-coupled receptor mas-like 1; test: Arachidonic acid liberation in transiently transfected CHO-K1 cells; assay type: cell-based

Substance | formation of fluorescence in the cells [1] | concentration dependence of activation of the receptors ([1]; concentration range from 5×10^−6 to 1×10^−5M) | liberation of arachidonic acid [2] | agonistic effects on mas-like 1 [1]
H-Phe-Leu-Phe-Gln-Pro-Gln-Arg-Pro-NH2 (H-FLFQPQRP-NH2; listed as Homo sapiens) [neuropeptide FF, natural ligand of mas-like 1] | ca. 2 000 fluorescence intensity units |  |  | 
PKPQQFFGLM [substance P2-11] | ca. 2 500 fluorescence intensity units | linear dependence | liberated arachidonic acid | 
substance P1-9: N-terminal fragment of substance P, SEQ ID NO:12 (RPKPQQFFG; listed as Homo sapiens) |  |  |  | Agonistic effects were shown
substance P4-11: fragment of substance P, SEQ ID NO:11 (PQQFFGL; listed as Homo sapiens) |  |  |  | Agonistic effects were shown
